Reference: US12060408B2, “Screening assays, modulators and modulation of activation of Receptor for Advanced Glycation End-products (RAGE)” (Monash University, priority 2017, dated 2024)
“Also recorded” adds a separate entry of the source. Ends that are not written are not given here.

Assays:
CCR2 = biological target: T1, CCR2 (Homo sapiens, UniProt P41597); assay: Receptor-HIT BRET, β-arrestin2/Venus with RAGE/Rluc8 and CCR2; assay type: cell-based
T1 construct: expressed in transfected cells; host or cells: HEK293FT, transient
T1 sequence (P41597 whole entry): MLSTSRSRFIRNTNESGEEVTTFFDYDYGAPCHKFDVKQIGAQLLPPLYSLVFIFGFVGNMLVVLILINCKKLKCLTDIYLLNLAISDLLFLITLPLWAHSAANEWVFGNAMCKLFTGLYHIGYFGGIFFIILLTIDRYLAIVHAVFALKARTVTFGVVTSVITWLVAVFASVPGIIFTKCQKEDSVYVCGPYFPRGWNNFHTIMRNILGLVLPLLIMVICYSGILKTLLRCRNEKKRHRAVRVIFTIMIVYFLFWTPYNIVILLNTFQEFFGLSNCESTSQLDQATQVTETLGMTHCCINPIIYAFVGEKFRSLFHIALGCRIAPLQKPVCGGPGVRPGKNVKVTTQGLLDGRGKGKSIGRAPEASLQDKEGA
T1 sequence (P32121 whole entry partner): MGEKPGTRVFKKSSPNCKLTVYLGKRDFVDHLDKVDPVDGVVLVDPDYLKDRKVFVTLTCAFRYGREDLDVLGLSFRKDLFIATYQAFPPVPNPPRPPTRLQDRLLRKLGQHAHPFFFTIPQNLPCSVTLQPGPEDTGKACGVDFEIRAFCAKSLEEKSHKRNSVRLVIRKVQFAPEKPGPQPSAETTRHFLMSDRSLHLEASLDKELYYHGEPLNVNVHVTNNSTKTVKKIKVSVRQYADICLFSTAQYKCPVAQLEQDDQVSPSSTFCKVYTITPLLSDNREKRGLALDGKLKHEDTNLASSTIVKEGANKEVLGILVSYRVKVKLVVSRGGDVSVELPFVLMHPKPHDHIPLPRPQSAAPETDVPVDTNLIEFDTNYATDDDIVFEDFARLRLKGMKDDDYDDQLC
Text: (§1) Bioluminescence Resonance Energy Transfer (BRET)
(§2) BRET is an established technology for studying protein-protein proximity in live cells, particularly involving GPCRs (Pfleger and Eidne, 2006). One protein of interest was linked to a bioluminescent donor enzyme, Rluc8, a variant of Renilla luciferase, and a second linked to an acceptor fluorophore, Venus, a variant of green fluorescent protein. If in close proximity (<10 nm), energy resulting from the rapid oxidation of a cell-permeable coelenterazine substrate by the donor can transfer to the acceptor, which in turn fluoresces at a longer characteristic wavelength.
(§3) Plasmids were transiently co-expressed in human embryonic kidney (HEK) 293FT cells and BRET measurements taken at 37° C. using a POLARstar Omega or LUMIstar plate reader (BMG Labtech, Mornington, Victoria, Australia) with 460-490 nm (‘donor emission’) and 520-550 nm (‘acceptor emission’) filters, or a VICTOR Light plate reader (Perkin Elmer, Glen Waverley, Victoria, Australia) with 400-475 nm (‘donor emission’) and 520-540 nm (‘acceptor emission’) filters, or a CLARIOstar plate reader (BMG Labtech, Mornington, Victoria, Australia) with 420-480 nm (‘donor emission’) and 520-620 nm (‘acceptor emission’) filters. […]
(§4) For BRET kinetic assays, the final pre-treatment reading is presented at the zero time point (time of ligand/vehicle addition). […]

orexin receptor 1 (OxR1) = biological target: T2, orexin receptor 1 (OxR1) (Homo sapiens, UniProt O43613); assay: Receptor-HIT BRET, β-arrestin2/Venus with RAGE/Rluc8 and orexin receptor 1; assay type: cell-based
T2 construct: expressed in transfected cells; host or cells: HEK293FT, transient
T2 sequence (O43613 whole entry): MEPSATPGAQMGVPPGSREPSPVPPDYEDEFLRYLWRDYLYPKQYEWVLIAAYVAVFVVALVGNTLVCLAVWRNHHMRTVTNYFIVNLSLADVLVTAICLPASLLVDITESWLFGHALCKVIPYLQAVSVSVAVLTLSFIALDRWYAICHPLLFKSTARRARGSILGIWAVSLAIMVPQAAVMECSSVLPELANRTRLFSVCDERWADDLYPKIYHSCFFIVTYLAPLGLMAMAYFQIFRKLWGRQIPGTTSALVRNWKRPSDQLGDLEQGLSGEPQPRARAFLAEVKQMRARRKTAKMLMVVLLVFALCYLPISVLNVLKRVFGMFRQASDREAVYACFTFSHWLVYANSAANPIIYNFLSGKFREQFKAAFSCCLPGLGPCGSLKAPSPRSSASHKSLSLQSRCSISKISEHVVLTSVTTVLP
T2 sequence (P32121 whole entry partner): as the sequence (P32121 whole entry partner) above
Text: as §1, §2, §3, §4

[1] = system: RAGE ligand-independent activation of RAGE by activated AT1R; assay: Ang II-induced NFκB activation (p65 gene expression, SEAP reporter) in AT1R-CHO cells with RAGE constructs; assay type: cell-based, human; conditions: summary statement, cell system not given
Experimental: (§5) Generation of Transgenic Chinese Hamster Ovary Cells
(§6) 100 ng of AT1R-Rluc8 construct was transfected into CHO cells using Lipofectamine 2000 (Thermo). Stable transfectants were selected using G418. AT1R—CHO were then transiently transfected with RAGE constructs using Lipofectamine 2000 (Invitrogen) and incubated for 16 h. The Homo sapiens AGER transcript variant 1 coding sequence (NM_001136) was synthesised and cloned between the NheI and XbaI sites of pCIneo (Promega) to generate the vector pCIneo-RAGE. This plasmid was then used to generate a library of mutant AGER clones (NP_001127). Primers 1-RAGE-SP-5′ and mCherry-XhoI-NotI-3′ were used to amplify the coding sequence of mCherry from the vector pmCherry-C1. The resultant PCR product was then used as template for a second PCR using primers 2-RAGE-SP-5′ and mCherry-XhoI-NotI-3′. The PCR product generated was digested with NheI and NotI and inserted between the NheI and NotI sites of pCIneo to generate pCIneo-SP-mCherry. The sequence of the insert was confirmed by DNA sequencing (Micromon, Monash University). […]
(§7) Cellular Expression of Pro-Inflammatory Markers and Mediators by Quantitative Real-Time PCR
(§8) After 2 hours of exposure to Ang II (1 μM) or the RAGE ligand, S100A8/A9 (5 ng/ml) cells were placed in Trizol, mRNA extracted and cDNA synthesized. Changes in the gene expression of the NFκB subunit, p65 (RelA) or NFκB-activated target genes (e.g ICAM-1, VCAM-1) were estimated by quantitative real-time RT-PCR, performed using the TaqMan system based on real-time detection of accumulated fluorescence (ABI Prism 7700, Perkin-Elmer Inc, PE Biosystems, Foster City, CA, USA). Gene expression was normalized to 18S mRNA and reported as fold change compared to the level of expression in untreated control mice/cells, which were given an arbitrary value of 1.
Oligopeptides (Cherry-TAT (control), mCherry-TAT-RAGE362-404 and mCherry-S391A-TAT-RAGE362-404 were generated by transformation of the Escherichia coli strain ClearColi BL21 (DE3; Lucigen). A single transformed colony was inoculated into 50 ml 2YT medium containing 100 μg/ml ampicillin and the culture was grown overnight at 37° C. with shaking at 250 rev/min. 10 ml overnight culture was used to inoculate 1 litre 2YT medium containing 100 μg/ml ampicillin and the culture was grown at 37° C. with shaking at 250 rev/min. When the cultures reached an OD600 of 0.8, the temperature was shifted to 15° C. for 30 min after which protein expression was induced by the addition of 1 mM isopropyl β-D-1-thiogalacto-pyranoside (IPTG). Following the addition of IPTG the cultures were grown for ˜16 h at 15° C. with shaking at 250 rev/min. Cells were harvested by centrifugation (3500 g, 4° C., 20 min) and resuspended in ice-cold lysis buffer (50 mM Tris pH 7.4, 300 mM NaCl, 10 mM imidazole and 5 mM beta-mercaptoethanol). The resuspended cells were sonicated and insoluble material was pelleted by centrifugation (13 000 g, 4° C., 30 min). The supernatant was filtered (0.2 μm) and applied onto a gravity-flow column with a 1 ml Ni-NTA Agarose resin bed volume (Qiagen) pre-equilibrated with lysis buffer. After the supernatant was passed over the resin, the column was washed with 100 ml of wash buffer (20 mM imidazole, 50 mM Tris pH 7.4, 150 mM NaCl, 5 mM beta-mercaptoethanol). His-tagged TAT-mCherry and TAT-mCherry-RAGE peptides were eluted from the resin using elution buffer (250 mM imidazole, 50 mM Tris pH 7.4, 150 mM NaCl, 5 mM beta-mercaptoethanol). […]

murine SVEC = assay: Induction of ICAM-1 by Ang II in murine SVEC transfected with RAGE constructs (RT-PCR); assay type: cell-based, mouse; conditions: transfected construct (FIG. 12)
Text: FIG. 12A. The effect of transfection of murine SVEC with RAGE or RAGE mutants on the induction of ICAM-1 by Ang II compared to vector alone (pc-Neo) as a control, as measured by RT-PCR. Data are mean±SEM; n=6-8 per group. * vs untreated control, # vs neo+Ang II, p<0.05.
FIG. 12B. The effect of transfection with truncated RAGE mutants on the induction of ICAM-1 by Ang II in murine SVEC to identify the smallest fragments with inhibitory activity. Data are mean±SEM; n=6-8 per group, * vs no treatment control, p<0.05.
FIG. 12D. The effect of transfection with single site-specific alanine or lysine mutants of RAGE370-390 on the induction of ICAM-1 by Ang II in murine SVEC. Data are mean±SEM; n=6-8 per group, * vs no treatment control, p<0.05.
as §7
After 2 hours of exposure to Ang II (1 μM) or the RAGE ligand, S100A8/A9 (5 ng/ml) cells were placed in Trizol, mRNA extracted and cDNA synthesized. Changes in the gene expression of the NFκB subunit, p65 (RelA) or NFκB-activated target genes (e.g ICAM-1, VCAM-1) were estimated by quantitative real-time RT-PCR, performed using the TaqMan system based on real-time detection of accumulated fluorescence (ABI Prism 7700, Perkin-Elmer Inc, PE Biosystems, Foster City, CA, USA). […]

[2] = system: RAGE ligand-dependent activation of RAGE; assay: S100A8/A9-induced NFκB activation (p65 gene expression) in CHO cells expressing RAGE constructs; assay type: cell-based, human; conditions: summary statement, cell system not given
Experimental: as §5, §6, §7, §8
To measure the induction of NFκB activity by 1 μM Ang II, or 5 ng/ml of the RAGE-ligand S100A8/A9 as a signalling control, AT1R—CHO cells were transfected with 0.4 μg of plasmids encoding NFκB-SEAP or β-galactosidase (β-Gal) using Lipofectamine 2000 (Invitrogen) as per manufacturer's instructions. After 24 hours, cells transfected with each plasmid combination were then treated with Ang II (1 μM) or left untreated and incubated for 4 hours before cell supernatants and cell lysates were collected. Cell supernatants were analysed using a chemiluminescent SEAP reporter gene assay (Roche Applied Science) to detect SEAP production after treatment. To control for transfection efficiency, cell lysates were assayed for β-Gal using a commercially available kit (Promega).

TRH receptor 1 (TRHR1) = assay: Receptor-HIT BRET, β-arrestin2/Venus with RAGE/Rluc8 and TRH receptor 1; assay type: cell-based
Text: as §1, §2, §3, §4

RAGE [3] = biological target: T3, RAGE (Mus musculus, UniProt Q62151); assay: S100A8/A9-induced pro-inflammatory signalling in PMAEC; assay type: cell-based; conditions: 1 hour pre-treatment, 1 μg/mL, S100A8/A9 5 ng/ml, FIG. 6C
T3 construct: in murine SVEC that are endogenously replete in RAGE expression; host or cells: Svec4-10 mouse endothelial cells
T3 sequence (Q62151 23-402): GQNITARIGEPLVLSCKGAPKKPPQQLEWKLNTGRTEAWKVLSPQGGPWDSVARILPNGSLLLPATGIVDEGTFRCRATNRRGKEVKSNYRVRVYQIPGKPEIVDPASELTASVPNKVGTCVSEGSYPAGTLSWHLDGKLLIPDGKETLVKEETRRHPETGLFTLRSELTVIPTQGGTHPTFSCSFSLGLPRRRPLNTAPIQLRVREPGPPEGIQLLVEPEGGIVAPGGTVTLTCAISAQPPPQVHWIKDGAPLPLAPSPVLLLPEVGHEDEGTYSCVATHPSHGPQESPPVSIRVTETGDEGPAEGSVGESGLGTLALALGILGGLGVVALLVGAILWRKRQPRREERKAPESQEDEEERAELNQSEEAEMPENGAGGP
Experimental: (§9) Additional experiments were conducted in the presence and absence of a 1 hour pre-treatment with a neutralizing antibody to RAGE (RAGEab; R&D systems; 1 μg/mL) or soluble RAGE22-331 (sRAGE; 1 μg/mL) prior to exposure to 1 μM Ang II or 5 ng/ml of the RAGE ligand, S100A8/A9.
(§10) Additional experiments were conducted in the presence and absence of a 1 hour pre-treatment with a pseudo-substrate for PKCζ (iPKCζ, 5 μM, Tocris).
(§11) To confirm the applicability of inhibition strategies to human tissues, additional experiments were undertaken in primary aortic endothelial cells from humans (Lonza). HAECs were grown in EGM-2 media. In each case cells were treated with mCherry-TAT (control), TAT-mCherry-RAGE362-404 (wild type), or TAT-mCherry-S391A-RAGE362-404 at a dose of 0.4 ng/ml for 30 min prior to treatment with either Ang II (1 μM), or S100A8/A9 (2 μg/ml; R&D systems) for 2h.

RAGE [4] = biological target: T4, RAGE (Homo sapiens, UniProt Q15109); assay: Ang II-induced pro-inflammatory signalling (p65-NFκB expression) in AT1R-CHO / RAGE-AT1R-CHO cells; assay type: cell-based; conditions: RAGE-AT1R-CHO cells; 1 hour pre-treatment, 1 μg/mL; 1 μM Ang II; FIG. 6A
T4 construct: RAGE-AT1R—CHO cells expressing both full length RAGE and AT1R; expressed in transfected cells
T4 sequence (Q15109 23-404): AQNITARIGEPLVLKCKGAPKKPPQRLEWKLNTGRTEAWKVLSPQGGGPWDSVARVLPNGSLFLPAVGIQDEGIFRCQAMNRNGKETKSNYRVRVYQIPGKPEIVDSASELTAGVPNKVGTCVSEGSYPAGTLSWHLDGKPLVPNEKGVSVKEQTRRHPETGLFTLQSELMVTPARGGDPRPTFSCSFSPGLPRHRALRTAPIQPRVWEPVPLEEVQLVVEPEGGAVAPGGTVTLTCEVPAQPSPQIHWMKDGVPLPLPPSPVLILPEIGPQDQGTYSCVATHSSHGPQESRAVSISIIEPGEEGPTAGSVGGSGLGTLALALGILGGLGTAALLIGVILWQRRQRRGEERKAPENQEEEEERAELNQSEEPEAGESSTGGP

RAGE [5] = biological target: T4, RAGE; assay: S100A8/A9-induced pro-inflammatory signalling in RAGE-AT1R-CHO cells; assay type: cell-based; conditions: 1 hour pre-treatment, 1 μg/mL, S100A8/A9 5 ng/ml, FIG. 6A
Experimental: as §9, §11

RAGE [6] = biological target: T3, RAGE; assay: Ang II-induced pro-inflammatory signalling in PMAEC; assay type: cell-based; conditions: 1 hour pre-treatment, 1 μg/mL, 1 μM Ang II, FIG. 6B
Experimental: as §9, §10, §11

CCR5 = biological target: T5, CCR5 (Homo sapiens, UniProt P51681); assay: Receptor-HIT BRET, β-arrestin2/Venus with RAGE/Rluc8 and CCR5; assay type: cell-based
T5 construct: expressed in transfected cells; host or cells: HEK293FT, transient
T5 sequence (P51681 whole entry): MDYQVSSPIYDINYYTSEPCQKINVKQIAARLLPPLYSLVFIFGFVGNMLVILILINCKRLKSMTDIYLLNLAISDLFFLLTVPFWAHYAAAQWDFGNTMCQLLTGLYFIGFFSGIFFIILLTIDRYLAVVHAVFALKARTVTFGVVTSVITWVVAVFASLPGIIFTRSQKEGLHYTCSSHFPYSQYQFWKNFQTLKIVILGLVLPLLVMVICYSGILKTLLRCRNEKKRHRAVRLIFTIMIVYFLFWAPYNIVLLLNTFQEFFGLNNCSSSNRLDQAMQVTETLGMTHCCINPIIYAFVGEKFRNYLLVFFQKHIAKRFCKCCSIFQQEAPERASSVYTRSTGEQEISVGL
T5 sequence (P32121 whole entry partner): as the sequence (P32121 whole entry partner) above
Text: as §1, §2, §3, §4

## CCL2: monocyte chemotactic protein-1, cognate ligand of CCR2
CCR2; control
  recruitment of βarrestin2/Venus to CCR2/Rluc8: recruitment
CCR2; in the presence of CCR2
  recruitment of β-arrestin2/Venus proximal to RAGE/Rluc8: recruitment

## Orexin A (QPLPDCCRQKTCSCRLYELLHGAGNHAAGILTL; not fully specified (residue 1, C-terminus, bridges); cysteine pairing not given here; UniProt O43612 34-66, looked up) [OxA]
Orexin receptor 1 (OxR1); control
  recruitment of βarrestin2/Venus to OxR1/Rluc8: recruitment
Orexin receptor 1 (OxR1); in the presence of OxR1
  recruitment of β-arrestin2/Venus proximal to RAGE/Rluc8: recruitment

## Q379EEEEERAELNQ390 (QEEEEERAELNQ; listed as Homo sapiens) [RAGE379-390]
[1]
  inhibition of RAGE ligand-independent activation of wild-type RAGE by activated AT1R: inhibiting
Murine SVEC
  inhibition of Ang II-induced ICAM-1 (acting on wild type RAGE): does not result in a loss of function
[2]
  inhibition of RAGE ligand-dependent activation of wild-type RAGE (S100A8/A9): inhibiting

## Thyrotrophin-releasing hormone [TRH]
TRH receptor 1 (TRHR1); control
  recruitment of βarrestin2/Venus to TRHR1/Rluc8: recruitment
TRH receptor 1 (TRHR1); in the presence of TRHR1
  recruitment of β-arrestin2/Venus proximal to RAGE/Rluc8: weak recruitment

## sRAGE22-331: soluble RAGE decoy with ligand-binding affinity; extracellular ligand-binding V-C1-C2 domains of RAGE
RAGE [3]
  pro-inflammatory signalling induced by the RAGE ligand S100A8/A9: able to attenuate
RAGE [4]
  RAGE ligand-independent induction of pro-inflammatory signalling by Ang II: do not affect
RAGE [5]
  RAGE ligand-dependent induction of pro-inflammatory signalling by S100A8/A9: block
RAGE [6]
  Ang II-AT1R-dependent induction of pro-inflammatory signalling: does not attenuate

B1: CCL4: chemokine ligand used to activate CCR5 (protein)
chain: APMGSDPPTACCFSYTARKLPRNFVVDYYETSSLCSQPAVVFQTKRSKQVCADPSESWVQEYVYDLELN
CCR5; control
  recruitment of βarrestin2/Venus to CCR5/Rluc8: recruitment
CCR5; in the presence of CCR5
  recruitment of β-arrestin2/Venus proximal to RAGE/Rluc8: particularly weak recruitment; also recorded: Lack of
